Tests used:
human EphA5 = biological target: T1, human EphA5 (Homo sapiens, UniProt P54756); test: Selectivity ELISA of humanized antibodies for human Eph receptor; type: binding; settings: coated protein 1 nM
T1 construct: a protein of the extracellular region of each human Eph receptor fused with the SEAP protein and the His tag; made in house; host or cells: Expi293F cells (culture supernatant)
From the text: According to the method described in Example 7, a DNA sequence encoding the signal sequence and the extracellular region of each human Eph receptor (EphA1, EphA2, EphA3, EphA4, EphA5, EphA6, EphA7, EphA8, EphA10, EphB1, EphB2, EphB3, EphB4, and EphB6) was amplified by RT-PCR using tissue-derived total RNA and cloned into a pENTR1A vector (Invitrogen/Life Technologies) having a DNA sequence encoding SEAP protein and histidine tag. Next, the DNA sequence encoding the signal sequence and the extracellular region of each human Eph receptor, SEAP protein, and histidine tag was transferred to a pcDNA3.1_rfcB vector through LR reaction using Gateway System (Invitrogen/Life Technologies) to construct a vector for the expression of a protein of the extracellular region of each human Eph receptor fused with the SEAP protein and the His tag (referred to as “Eph receptor extracellular region-SEAP-His protein”) (this vector is referred to as “Eph receptor extracellular region-SEAP-His protein expression vector”).
Next, each human Eph receptor extracellular region-SEAP-His protein expression vector was transferred to Expi293F cells (Gibco/Thermo Fisher Scientific) using Expi293 expression system (Gibco/Thermo Fisher Scientific). After incubation (5% CO2, 37° C.) for 5 days, the culture supernatant was recovered and centrifuged at 1500 rpm at room temperature for 5 minutes. The centrifugation supernatant was filtered through a 0.45-μm filter (Merck Millipore).
Each anti-EphA4 monoclonal humanized antibody obtained in Example 16 was evaluated for its binding activity against each human Eph receptor according to the following steps.
Each well of a 96-well plate (Nunc) was coated with a rabbit anti-6-His antibody (Bethyl Laboratories). Each well was […] After washing with 0.05% Tween 20/PBS (Nacalai Tesque) three times, the SEAP-His protein of human EphA1, EphA2, EphA3, EphA4, EphA5, EphA6, EphA7, EphA8, EphA10, EphB1, EphB2, EphB3, EphB4, or EphB6 was added (final concentration: 1 nM) to each well and incubated at room temperature for 1 hour. After washing three times, the humanized antibody was added to each well and incubated at room temperature for 1 hour. After washing three times, a horseradish peroxidase-labeled donkey […] IgG antibody (Jackson ImmunoResearch Laboratories) was added thereto and incubated at room temperature for 1 hour. After washing three times, TMB Microwell Peroxidase Substrate System (Kirkegaard & Perry Laboratories (KPL)) was added to each well. After confirmation of moderate color development, an equal amount of a reaction stopping solution (1N H2SO4, Wako Pure Chemical Industries) was added to each well. The absorbance at 450 nm was read using a microplate reader (Thermo Fisher Scientific).

human EphA4 = biological target: T2, human EphA4 (Homo sapiens, UniProt P54764); test: Affinity of humanized antibodies by SPR (Biacore T200); type: binding; settings: human EphA4 extracellular region-SEAP-His; for ka / kd: 1:1 binding model; for Kd: KD=kd/ka
T2 construct: made in house; not restated for the human SEAP-His protein
T2 sequence (P54764 20-547): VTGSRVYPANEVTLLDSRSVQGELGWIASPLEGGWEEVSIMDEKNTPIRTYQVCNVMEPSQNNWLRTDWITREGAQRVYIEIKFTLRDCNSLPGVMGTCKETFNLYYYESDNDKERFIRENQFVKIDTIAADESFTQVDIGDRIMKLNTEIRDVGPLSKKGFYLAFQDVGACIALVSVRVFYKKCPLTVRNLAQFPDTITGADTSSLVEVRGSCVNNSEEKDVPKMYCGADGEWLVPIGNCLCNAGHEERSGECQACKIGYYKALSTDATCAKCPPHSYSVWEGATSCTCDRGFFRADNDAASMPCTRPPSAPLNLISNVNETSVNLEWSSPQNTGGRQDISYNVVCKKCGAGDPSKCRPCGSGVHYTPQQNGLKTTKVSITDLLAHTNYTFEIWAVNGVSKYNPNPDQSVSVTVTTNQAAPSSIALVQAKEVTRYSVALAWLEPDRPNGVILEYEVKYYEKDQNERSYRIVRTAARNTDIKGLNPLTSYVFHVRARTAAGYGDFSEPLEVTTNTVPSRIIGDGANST
Description: The binding affinity of each anti-EphA4 monoclonal humanized antibody obtained in Example 16 for human EphA4 was determined by surface plasmon resonance (SPR) using Biacore T200 (GE Healthcare). First, for the assay of antibody A, a rat anti-mouse IgG1 antibody produced with a conventional method by immunizing rat with mouse IgG1 antibody was immobilized on sensor chip CM5. The immobilization of the rat anti-mouse IgG1 antibody on sensor chip CM5 was performed by the amine coupling method using N-hydroxysuccinimide (NHS) and N-ethyl-N′-(3-dimethylaminopropyl)carbodiimide hydrochloride (EDC). Ethanolamine was used in blocking (the sensor chip and the reagents for immobilization were all manufactured by GE Healthcare). The antibody was diluted with a buffer solution for immobilization (10 mM sodium acetate, pH 4.5) and immobilized on the sensor chip according to the protocol attached to Biacore T200. For the assay of each humanized monoclonal antibody, a protein A chip (GE Healthcare, 29-1383-03) was used. Antibody A or the humanized monoclonal antibody was diluted with a running buffer solution HBS-EP (GE Healthcare), injected onto only flow cell 2 for 120 seconds, and captured (captured amount: approximately 30 to 60 RU). Subsequently, human EphA4 extracellular region-SEAP-His protein serially diluted in the range of 50, 16.7, 5.6, 1.9, and 0.6 nM using HBS-EP was sequentially added from the lower toward higher concentration sides without regeneration operation. Binding reaction curves were sequentially observed at the time of the addition (association phase, for 120 sec) and after the completion of the addition (dissociation phase, for 900 sec). After the completion of each observation, the sensor chip was regenerated by the addition of 3 M MgCl2 (for 60 sec) or 10 mM Glycine-HCl pH 1.5 (for 30 sec). The obtained binding reaction curves were subjected to fitting analysis with 1:1 binding models using software BIA evaluation attached to the system to calculate the affinity (KD=kd/ka) for human EphA4 (Table 6).

[1] = biological target: T3, human EphA4 (binding to human Ephrin A5) (Homo sapiens, UniProt P54764); test: Human EphA4-human ligand binding inhibition ELISA of humanized antibodies (biotinylated Ephrin A5-Fc); settings: biotinylated human Ephrin A5-Fc 0.7 nM
T3 construct: made in house; not restated for the human SEAP-His protein
T3 sequence (P54764 20-547): as above
Description: Each anti-EphA4 monoclonal humanized antibody obtained in Example 16 was evaluated for its inhibitory activity against the binding between human EphA4 and its human ligand according to the following steps. Each well of a 96-well plate (Nunc) was coated with an anti-alkaline phosphatase antibody (Thermo Fisher Scientific). After incubation overnight at 4° C., each well was blocked with 1% BlockAce (DS Pharma Biomedical) at room temperature for 1 hour. After washing with 0.05% Tween 20/PBS (Thermo Fisher Scientific) three times, the human EphA4 extracellular region-SEAP-His protein obtained by the method of Example 2 was added (final concentration: 10 nM) to each well and incubated at room temperature for 1 hour. After washing three times, a ligand and each serially diluted humanized antibody of antibody A (0, 0.003, 0.01, 0.03, 0.1, 0.3, 1, 3, 10, 30, 100, 300, 1000, and 3000 nM) were added to each well. The ligand used was biotinylated human Ephrin A5-Fc chimera (R&D Systems, final concentration: 0.7 nM). After incubation at room temperature for 1 hour and subsequent washing three times, horseradish peroxidase-labeled streptavidin (GE Healthcare) was added thereto and incubated at room temperature for 1 hour. After washing three times, a TMBZ (3,3′,5,5′-tetramethylbenzidine, Sigma-Aldrich) solution was added to each well and incubated at room temperature for 2 minutes. An equal amount of a reaction stopping solution (1N H2SO4, Wako Pure Chemical Industries) was added to each well. The absorbance at 450 nm was read using a microplate reader (PerkinElmer).

T1 sequence (P54756 25-573 limits assumed): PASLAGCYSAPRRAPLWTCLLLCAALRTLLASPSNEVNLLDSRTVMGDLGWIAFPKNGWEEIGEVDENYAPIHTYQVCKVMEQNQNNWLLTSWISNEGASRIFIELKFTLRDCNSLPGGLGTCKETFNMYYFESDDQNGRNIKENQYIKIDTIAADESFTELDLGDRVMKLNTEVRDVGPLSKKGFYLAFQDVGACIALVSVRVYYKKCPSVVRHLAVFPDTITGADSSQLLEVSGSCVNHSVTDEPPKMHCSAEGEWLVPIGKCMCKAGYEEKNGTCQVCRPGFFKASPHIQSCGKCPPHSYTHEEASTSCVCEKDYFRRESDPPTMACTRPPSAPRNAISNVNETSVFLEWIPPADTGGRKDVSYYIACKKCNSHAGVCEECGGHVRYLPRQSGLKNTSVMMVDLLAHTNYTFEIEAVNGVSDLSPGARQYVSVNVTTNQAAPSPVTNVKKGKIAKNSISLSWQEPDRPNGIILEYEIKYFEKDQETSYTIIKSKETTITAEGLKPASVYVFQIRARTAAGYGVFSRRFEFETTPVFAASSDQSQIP

| Molecule | hEphA5-SEAP-: absorbance at 450 nm, percentage with respect to hEphA4-SEAP-His as 100% (human EphA5) | ka (human EphA4) | kd (human EphA4) | Kd (human EphA4) | IC50 [1] |
| --- | --- | --- | --- | --- | --- |
| 92 (antibody, V domains shown, constant regions without entry; synthetic humanized antibody light chain variable region sequence; synthetic humanized antibody heavy chain variable region sequence) VL: DIQMTQSPSSLSASVGDRVTITCRASENIYRNLAWYQQKPGKAPQLLLYAATNLADGVPSRFSGSGSGTDYTLTISSLQPEDFATYYCQHFWGTPWTFGQGTKVEIK VH: QIQLVQSGSELKKPGASVKVSCKASGYTFTDYSMHWVRQAPGQGLKWMGWINTETGEPTYADDFKGRFVFSLDTSVSTAYLQISSLKAEDTAVYYCARIPLYYYGSRYWYFDVWGQGTTVTVSS | 6.8% | 330000 M⁻¹ s⁻¹ | 0.00043 s⁻¹ | 1.3 nM | 3.5 nM |
| 71 (antibody, V domains shown, synthetic humanized antibody heavy chain variable region sequence; synthetic humanized antibody light chain variable region sequence) VH: QIQLVQSGSELKKPGASVKVSCKASGYTFTDYSMHWVRQAPGQGLKWMGWINTETGEPTYAQGFTGRFVFSLDTSVSTAYLQISSLKAEDTAVYYCARIPLYYYGSRYWYFDVWGQGTTVTVSS VL: EIVMTQSPATLSVSPGERATLSCRASENIYRNLAWYQQKPGQSPRLLIYAATNLADGIPARFSGSGSGTEYTLTISSLQSEDFAVYYCQHFWGTPWTFGQGTKVEIK | 5.6% | 280000 M⁻¹ s⁻¹ | 0.00023 s⁻¹ | 0.82 nM | 2.5 nM |
| 96 (antibody, V domains shown, constant regions without entry; synthetic humanized antibody light chain variable region sequence; synthetic humanized antibody heavy chain variable region sequence) VL: EIVMTQSPATLSVSPGERATLSCRASENIYRNLAWYQQKPGQSPRLLIYAATNLADGIPARFSGSGSGTEYTLTISSLQSEDFAVYYCQHFWGTPWTFGQGTKVEIK VH: QVQLVQSGSELKKPGASVKVSCKASGYTFTDYSMHWVRQAPGQGLKWMGWINTETGEPTYADDFKGRFVFSLDTSVSTAYLQISSLKAEDTAVYYCARIPLYYYGSRYWYFDVWGQGTTVTVSS | 6.0% | 270000 M⁻¹ s⁻¹ | 0.00031 s⁻¹ | 1.1 nM | 3.7 nM |
| 94 (antibody, V domains shown, constant regions without entry; synthetic humanized antibody light chain variable region sequence; synthetic humanized antibody heavy chain variable region sequence) VL: EIVMTQSPATLSVSPGERATLSCRASENIYRNLAWYQQKPGQSPRLLIYAATNLADGIPARFSGSGSGTEYTLTISSLQSEDFAVYYCQHFWGTPWTFGQGTKVEIK VH: QVQLVQSGSELKKPGASVKVSCKASGYTFTDYSMHWVRQAPGQGLKWMGWINTETGEPTYAQGFTGRFVFSLDTSVSTAYLQISSLKAEDTAVYYCARIPLYYYGSRYWYFDVWGQGTTVTVSS | 6.5% | 260000 M⁻¹ s⁻¹ | 0.00024 s⁻¹ | 0.95 nM | 2.7 nM |
| 95 (antibody, V domains shown, constant regions without entry; synthetic humanized antibody light chain variable region sequence; synthetic humanized antibody heavy chain variable region sequence) VL: EIVMTQSPATLSVSPGERATLSCRASENIYRNLAWYQQKPGQSPRLLIYAATNLADGIPARFSGSGSGTEYTLTISSLQSEDFAVYYCQHFWGTPWTFGQGTKVEIK VH: QVQLVQSGSELKKPGASVKVSCKASGYTFTDYSMHWVRQAPGQGLEWMGWINTETGEPTYADDFKGRFVFSLDTSVSTAYLQISSLKAEDTAVYYCARIPLYYYGSRYWYFDVWGQGTTVTVSS | 4.6% | 300000 M⁻¹ s⁻¹ | 0.00031 s⁻¹ | 1 nM | 3.1 nM |
| 93 (antibody, V domains shown, constant regions without entry; synthetic humanized antibody light chain variable region sequence; synthetic humanized antibody heavy chain variable region sequence) VL: EIVMTQSPATLSVSPGERATLSCRASENIYRNLAWYQQKPGQSPRLLIYAATNLADGIPARFSGSGSGTEYTLTISSLQSEDFAVYYCQHFWGTPWTFGQGTKVEIK VH: QVQLVQSGSELKKPGASVKVSCKASGYTFTDYSMHWVRQAPGQGLEWMGWINTETGEPTYAQGFTGRFVFSLDTSVSTAYLQISSLKAEDTAVYYCARIPLYYYGSRYWYFDVWGQGTTVTVSS | 4.9% | 310000 M⁻¹ s⁻¹ | 0.00024 s⁻¹ | 0.77 nM | 2.5 nM |

Reference: patent US10428140B2, “Anti-EphA4 antibody” (EISAI R&D MANAGEMENT CO., LTD., priority 2015, dated 2019)
